Experimental data from patent publication US20030073824A1, “DNA encoding methymycin and pikromycin” (priority 1999, published 2003).

Experiments:
[1] = target: A. eutrophus PHA synthase (Cupriavidus necator, UniProt P23608); conditions: read-out: apparent Km (substrate concentration at half-optimal velocity); enzyme 0.95 mg/ml; 40 or 200 μl assay volumes; FIG. 10
[2] = Storage stability of PHA synthase purified from insect cells; type: physicochemical
Description: Fraction collection tubes were prepared by addition of […] of 100 mM EDTA to provide a metalloprotease inhibitor at 1 mM immediately after HA chromatography. PHA synthase was eluted in a broad peak between 110-180 mM KPi. Fractions (3 ml) containing significant PHA synthase activity were pooled and stored at 0° C. until the entire soluble fraction had been run through the chromatographic process. Pooled fractions then were concentrated at 4° C. by use of a Centriprep-30 concentrator (Amicon) to 3.8 mg/ml. Aliquots (0.5 ml) were either flash frozen and stored in liquid N2 or glycerol was added to a final concentration of 50% and samples (1.9 mg/ml) were stored at −20° C.
PHA synthase purified from insect cells appears to be relatively stable.

[3] = target: the molecule itself; assay: size exclusion chromatography of native protein (forms of about 100-160 kDa and 50-80 kDa)

Row | Molecule | Km [1] [µM] | synthase activity remained ([2]; after 7 weeks stored at −20° C. in the presence of 50% glycerol) | synthase activity remained ([2]; after 7 weeks stored in liquid N2) | binding result [3]
1 | 3-hydroxybutyrate CoA [HBCoA] | 2500 |  |  | 
2 | A. eutrophus PHA synthase (phbC gene product) produced in insect cells with a baculovirus vector (enzyme, Alcaligenes eutrophus, UniProt P23608 7-589, looked up, Denatured on SDS-PAGE for the Western blots; Size exclusion chromatography used the native purified protein; also called PHB synthase; 64 kDa protein) AAASTQEGKSQPFKVTPGPFDPATWLEWSRQWQGTEGNGHAAASGIPGLDALAGVKIAPAQLGDIQQRYMKDFSALWQAMAEGKAEATGPLHDRRFAGDAWRTNLPYRFAAAFYLLNARALTELADAVEADAKTRQRIRFAISQWVDAMSPANFLATNPEAQRLLIESGGESLRAGVRNMMEDLTRGKISQTDESAFEVGRNVAVTEGAVVFENEYFQLLQYKPLTDKVHARPLLMVPPCINKYYILDLQPESSLVRHVVEQGHTVFLVSWRNPDASMAGSTWDDYIEHAAIRAIEVARDISGQDKINVLGFCVGGTIVSTALAVLAARGEHPAASVTLLTTLLDFADTGILDVFVDEGHVQLREATLGGGAGAPCALLRGLELANTFSFLRPNDLVWNYVVDNYLKGNTPVPFDLLFWNGDATNLPGPWYCWYLRHTYLQNELKVPGKLTVCGVPVDLASIDVPTYIYGSREDHIVPWTAAYASTALLANKLRFVLGASGHIAGVINPPAKNKRSHWTNDALPESPQQWLAGAIEHHGSWWPDWTAWLAGQAGAKRAAPANYGNARYRAIEPAPGRYVKAKA |  | approximately 75% | approximately 50% | binds
